In the DeepSol protein solubility set:

Assay: soluble on expression in E. coli; label from the status in PepcDB or PDB records

Sequence	soluble on expression in E. coli
MLPFDPSTRYDRQVRLWGEEGQASIGSTSACVLGSDSLATEILKSLVLAGVQSFYVVDDAKVEQADIGQNFFLHADDIGRSRAEATLEKLTELNPSVSGSASSQPPTALAMEDVEKLTTFSVVVAANQNEEIDTTFAKVLYNIRVPFICIKTFGLIGTIRICIKEHTIANSHEENPRPDLRLDAPFSKLIEMINETNLDEMTLEQLRHTPYILLHFKALEVFRKQRNDPEAFPSTTAERKELQAILMSFRRSSEESGTKDSENFDEAKAAVIRAFQRTTIGSSVKSILSSPQCSTSTRPFWLICEALRRFVTENNNLLPLRGTLPDMTSDSSRYTRLATLFHEKALSDAQEVLRLTREVEKERGVGDVISDDVCYRFCKNADRIRVQYGDVLDYNEETKAIVEKIRESNIDEETRNQKVDEATWMLLMRAVGRFQKEKGRYPGTNGVPVSIDAQDLKKRVEVLIREALKDEQDFTSISNKVTDTAIAEICRFGAAELHVISSYVGGIAAQEIIKLATNQYVPIDNTFIFDGHTQESATFKF	not soluble
MHHHHHHSSGVDLGTENLYFQSMSVGFIGAGQLAFALAKGFTAAGVLAAHKIMASSPDMDLATVSALRKMGVKLTPHNKETVQHSDVLFLAVKPHIIPFILDEIGADIEDRHIVVSCAAGVTISSIEKKLSAFRPAPRVIRCMTNTPVVVREGATVYATGTHAQVEDGRLMEQLLSSVGFCTEVEEDLIDAVTGLSGSGPAYAFTALDALADGGVKMGLPRRLAVRLGAQALLGAAKMLLHSEQHPGQLKDNVSSPGGATIHALHVLESGGFRSLLINAVEASCIRTRELQSMADQEQVSPAAIKKTILDKVKLDSPAGTAL	soluble
MTEVLIKVDLNQPVTENEQIHNRWHPDIPMACWVKPGEDFILETYDWTAGAIKNNDDASDVRDVDLSTVHYLSGPVGVHGAEPGDLLVVDLLDIGARADSQWGFNGFFSRQNGGGFLTDHFPMAQKAIWDFKGMMTSSRHIPGVEFAGLIHPGLIGCLPDHKMLAEWNRREQELIDTDPGRVPPLANPPHAKTAHLGKMKGGPERDLAAATGARTVPPREHGGNCDIKDLSRGSKVFFPVYVDGAGLSVGDLHFSQGDGEITFCGAIEMAGWVHMRVELIKGGMAKYGIKNPVFKPSPIVPTYNKYLIFEGISVDESGQQHYLDVNVAYRQACLNAINYMTKFGYSPAQGYALLGSAPVQGHISGIVDIPNACATLWLPTEIFKFDINPNADGPTRFIDGSIDLPIAPDKLEHHHHHH	not soluble
GSHMDKIKLLKAAFLQYCRKDLGHAQMVVDELFSSHSDLDSDSELDRAVTQISVDLMDDYPASDPRWAESVPEEAPGFSNTSLIILHQLEDKMKAHSFLMDFIHQVGLFGRLGSFPVRGTPMATRLLLCEHAEKLSAAIVLKNHHSRLSDLVNTAILIALNKREYEIPSNLTPADVFFREVSQVDTICECLLEHEEQVLRDAPMDSIEWAEVVINVNNILKDMLQAASHYRQNRNSLYRREESLEKEPEYVPWTATSGPGGIRTVIIRQHEIVLKVAYPQADSNLRNIVTEQLVALIDCFLDGYVSQLKSVDKSSNRERYDNLEMEYLQKRSDLLSPLLSLGQYLWAASLAEKYCDFDILVQMCEQTDNQSRLQRYMTQFADQNFSDFLFRWYLEKGKRGKLLSQPISQHGQLANFLQAHEHLSWLHEINSQELEKAHATLLGLANMETRYFAKKKTLLGLSKLAALASDFSEDMLQEKIEEMAEQERFLLHQETLPEQLLAEKQLNLSAMPVLTAPQLIGLYICEENRRANEYDFKKALDLLEYIDEEEDININDLKLEILCKALQRDNWSSSDGKDDPIEVSKDSIFVKILQKLLKDGIQLSEYLPEVKDLLQADQLGSLKSNPYFEFVLKANYEYYVQGQI	soluble
MSAKTKFKSPAFEPIHSAASGLFSVDAIPQETMRSFDTACLSSIKDLQPLEIKALREKLNVSQPVFARYLNTSVSTVQKWESGAKRPSGMSLKLLNVVQKHGLKVLV	not soluble
SDPEISEQDEEKKKYTSVCVGREEDIRKSERMTAVVHDREVVIFYHKGEYHAMDIRCYHSGGPLHLGEIEDFNGQSCIVCPWHKYKITLATGEGLYQSINPKDPSAKPKWCSKGVKQRIHTVKVDNGNIYVTLSKEPFKCDSDYYATGEFKVIQSSS	soluble
MKEKIPFYNEKEFHDMVKKTKKGTFSGWYIINKNNNSVEFSGSFNRQFKLNKPVIPVNTEYVTRKEFNEYKDSNDQRLTKIETELKSQGQRIQVVEDKVDRLTEVVMVQSQQIKTQGEAMNARMDRFESLVLKSLESIGNTLTDFGKRLDVIETRLDKIDPPKLEHHHHHH	not soluble
MLKPLLAIFMISSALSIPLNRSDFLENDHVELMPLEKDGELNDKFRQEMIFSHNLDPSDSKQLSESIKEMFKKTDVNDDGFLTAGELKQQIRKNMEEHLEKSKNDSEIFFDIVDTNKDGSIVWEEFEPHFSKMHEKDHSDSELMDVHTEDPHRVDDEKRMFNRSDITRDGRLDRMEWHIFLHPEYSAQGLVEIVNDLMGVYDKNNDEVVSQDDFVNGIPGTVDELNPEFENMEKLEKERRLREFNEEIDENSDGKATFRELYDYVDPQNFRLASKEVNDIMMLTDANNDEKLSLEELLERDWLLARSSLLSARSSLHDEM	not soluble
MAHHHHHHMQRHTVEKKLQRSTHAAECHTDVAVVRLPHVQREVRQRLVHHAARVAVDSSLRQGRHNRVGHLKGKTRRAMPSVPAAARARVAVHRLRPGHVARRVVVARAAPEHHHALRKHTVVQHLPPFLVQVAPHHKPRGRRHNRVRWKKFGKGCTSFHLTVVCKHHSGAAARQLNFLLRTWHT	not soluble
MRKVTAAVMASTLAFSFLSHAAEVVTSDNWHPGDGATQRSAQNHMFDGISLTEHQRQQMRDLMQQARHEQPPVNVSEMETMHRLVTAEKFDESAVRAQAEKMAQEQVARQVEMARVRNQMYRLLTPEQQAVLNEKHQQRMEQLRDVAQWQKSSSLKLLSSSNSRSQLEHHHHHH	not soluble
MSAKHPIIAVTGSSGAGTTTTSEAFRKMFNMMSIKPAWVEGDSFHRFTRPEMDVEIRKAREQGRHISYFGPQANDFPTLEEFFRQYGKVGTGQVRRYLHTFDEAVPYNQMPGTFTPWQSLPENSDVLFYEGLHGGVVDGDVNVAQHVDFLIGMVPIVNLEWIQKYVRDTRDRGHSREAVMDSIVRSMDDYLKFITPQFSRTHINFQRVPTVDTSNPLNAKGIPTLDESFVVIRFRGIKNVDFPYLLAMIDGSFMSRHNTIVVPGGKMSFAMDLIVRPLLQQLIETGKIG	not soluble
MKKEHLKFVIDSRCFRGSCVTSMSDGIHCDYYGSTLEELKKQENNPFLVAVTRNAIHKRSRIHDKSLCRPFREITEENYYNCMNELPPVRLKHHSFFFGEPYHGSLYMFCFTIGKRFFRGLRPVMTPQAELERQMNEHYHNITFKGKVTKGKAERITSKDKQEIITIPYSFTDKENRERFICNMVTGGNDGGDTCKARKDMTNILLSLRKHHFLYFSGYGRHDDMETLLDEVEEKRYTIITSGCLFQFPPCRDSVSFTGSVKETGENFFYRIYDRELFLHIMHRLRAVKREKTPAEAKAVLPKCKCYE	not soluble
MIELSHEEELRYNRQIILKSVDFDGQEKLKASKMLIVGLGGLGCAASQYLAAAGVGNLTLLDFDTVSLSNLQRQVLHCDARLNMPKVESAKIALEQINPHINIETINAKLDEEKLAEIIPHFDIVLDCTDNVEIRNQLDRQCNHMKVPLISGAAIRMEGQVSVFTYEPNTPTYRDLSKLFRQNVLSCVEAGVLAPIVGIVGCIQALEAIKVRLKIGKNLCGRLLMIDGFSMNIREIKLPTNME	not soluble
STVLIVSQEHQKIKTYINTVADRGVTEIPVKGGYSGTNQIMLMTTIAGYEFAKLQEAIAEIDETAFITVTPTSQASGRGFSLQKNHGRLDEDILMPM	not soluble
MSTFKPLKILASRRQVLKAGLAAMTLSGVASQVSAKEQPLKTSNGHSKPAAKKAGGRRIVMLDPGHGGIDTGAIGHNGSKEKHVVLAIAKNVRSILRSNGIDARLTRTGDTFIPLYDRVEIAHQHGADLFMSIHADGFTNPSAAGASVFALSNRGASSAMAKYLSDRENRADEVAGKKATDKDHLLQQVLFDLVQTDTIKNSLTLGSHILKKIKPVHKLHSRNTEQAAFVVLKSPSIPSVLVETSFITNPNEEKLLGTTAFRQKIATAIANGIISYFHWFDNQKAHSKRR	not soluble
MSLNGATQGLLGWSSRGEIAAEIADAKQSQSVYVDKIANSSLAEIQADPTLMQFALSGGAAAFKVNCIQCHGSGAEGGQGYPNLNDDDWMWGGSVDDIYTTVKHGIRFADDADTRASEMPAFGDILKSDEIRAVAAYVVSLTGTPSNPALVEPGKQLFADNCASCHGEDAKGNREFGAPNLADAIWLKAHGEEGIVAQIRSPKHGVMPAWGERLGDTTVKQLAIFVHSLGGGEGHHHHHH	not soluble
KAGSAAAPFTKPFAVYKNVKFYLGDISHLVNCVSFDFVVNAANENLLHGGGVARAIDILTEGQLQSLSKDYISSNGPLKVGAGVMLECEKFNVFNVVGPRTGKHEHSLLVEAYNSILFENGIPLMPLLSCGIFGVRIENSLKALFSCDINKPLQVFVYSSNEEQAVLKFLDGLD	soluble
MPLITTETGKKMHVLEDGRKLITVIPGDGIGPECVEATLKVLEAAKAPLAYEVREAGASVFRRGIASGVPQETIESIRKTRVVLKGPLETPVGYGEKSANVTLRKLFETYANVRPVREFPNVPTPYAGRGIDLVVVRENVEDLYAGIEHMQTPSVAQTLKLISWKGSEKIVRFAFELARAEGRKKVHCATKSNIMKLAEGTLKRAFEQVAQEYPDIEAVHIIVDNAAHQLVKRPEQFEVIVTTNMNGDILSDLTSGLIGGLGFAPSANIGNEVAIFEAVHGSAPKYAGKNVINPTAVLLSAVMMLRYLEEFATADLIENALLYTLEEGRVLTGDVVGYDRGAKTTEYTEAIIQNLGKTPRKTQVRGYKPFRLPQVDGAIAPIVPRSRRVVGVDVFVETNLLPEALGKALEDLAAGTPFRLKMISNRGTQVYPPTGGLTDLVDHYRCRFLYTGEGEAKDPEILDLVSRVASRFRWMHLEKLQEFDGEPGFTKAQGED	soluble
MGKGDPNKPRGKMSSYAFFVQTCREEHKKKHPDSSVNFAEFSKKCSERWKTMSAKEKSKFEDLAKSDKARYDREMKNYVPPKGDKKGKKKDPNAPKRPPSAFFLFCSEHRPKIKSEHPGLSIGDTAKKLGEMWSEQSAKDKQPYEQKAAKLKEKYEKDIAAYRAKGKSEVGKKGPGRPTGSKKKNEPEDEEEEEEEEDDEDEEEEDEDEE	soluble
MGHHHHHHGGHMSLSPVLTQHVSQPITLDEQTQKMKRHLLQDIRRSAYVYRVDCGGCNACEIEIFAAITPVFDAERFGIKVVSSPRHADILLFTGAVTRAMRMPALRAYESAPDHKICVSYGACGVGGGIFHDLYSVWGGSDTIVPIDVWIPGCPPTPAATIHGFAVALGLLQQKIHAVDYRDPTGVTMQPLWPQIPPSQRIAIEREARRLAGYRQGREICDRLLRHLSDDPTGNRVNTWLRDADDPRLNSIVQQLFRVLRGLHDEGGS	soluble
MGSDKIHHHHHHMYVVFGATGQTGSAVANALLERNFPVRVVLRSDKAASTWREKGADVAIAEVTDVEAMTAAMREADAVYVMNPPAYNVSDMFALAEQIGECYVEALTNADARKVVLLSSVGSQHASGTGNILTTHILERMLGNLAVPVTVLRAASFMENWGSAAAIAAEQGVLPSFFAPLDRRLPMVSTEDIGRTAAEAMIEDWKGQRIIELHGPIDYSPNDVAAAFAAVLNRNVQAIAVPESDWQATISSFGFSPEAVNSYSEMMRGFNSGHIVFESSPEIETRTGQTAIEAAVDRLTGSKSK	not soluble
